Data on one molecule can be found in PMC6511263 (Nature, 2018).

The target in the assay is T1, SETD3 (SET domain protein 3) (human, UniProt Q86TU7).
T1 sequence: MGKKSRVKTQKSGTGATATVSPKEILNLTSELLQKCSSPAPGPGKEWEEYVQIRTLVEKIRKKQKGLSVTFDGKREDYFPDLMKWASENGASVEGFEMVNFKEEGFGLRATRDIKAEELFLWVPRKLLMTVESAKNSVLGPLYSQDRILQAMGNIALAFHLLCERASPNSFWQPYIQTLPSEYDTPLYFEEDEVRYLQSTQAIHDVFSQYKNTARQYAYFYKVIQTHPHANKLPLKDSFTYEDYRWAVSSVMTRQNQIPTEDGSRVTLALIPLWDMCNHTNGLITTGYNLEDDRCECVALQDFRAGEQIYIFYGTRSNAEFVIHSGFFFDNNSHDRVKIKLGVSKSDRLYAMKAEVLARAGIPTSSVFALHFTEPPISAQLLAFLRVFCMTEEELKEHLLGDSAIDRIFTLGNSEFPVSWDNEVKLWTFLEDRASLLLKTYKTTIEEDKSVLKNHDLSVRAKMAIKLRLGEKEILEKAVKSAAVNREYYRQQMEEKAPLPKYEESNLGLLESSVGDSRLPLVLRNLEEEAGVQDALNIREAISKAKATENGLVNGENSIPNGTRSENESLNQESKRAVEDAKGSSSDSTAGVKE
Description: crystal structure.

For the molecule TLKYPIEHGIVTNWD [Human beta-actin peptide (residues 66-80)], the binding result is listed as “binds”.
